Measured values published in patent US20040002593A1 (BURNHAM INSTITUTE, published 2004).

How the values were obtained:
ASC in pGilda = target: T1, ASC in pGilda (human, UniProt Q9ULZ3 1-195); assay: yeast two-hybrid, Leu read-out
T1 construct: Yeast two-hybrid construct
Experimental: (§1) Colonies were plated on both LEU+ and LEU− media and also used for a β-Gal-assay.

ASC-CARD in pGilda = target: T2, ASC-CARD in pGilda (human, UniProt Q9ULZ3 107-195); assay: yeast two-hybrid, β-Gal read-out
T2 construct: domain: CARD; Yeast two-hybrid construct; also called CARD domain of ASC
T2 sequence (looked up): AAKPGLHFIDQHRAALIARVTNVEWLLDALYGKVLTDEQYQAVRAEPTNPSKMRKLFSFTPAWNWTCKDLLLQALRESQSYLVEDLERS
Experimental: as §1

B1: ASC-CARD in pJG 4-5 (other, human, UniProt Q9ULZ3 107-195, looked up, not shown: large carriers)
chain: T2 sequence (looked up)
notes: domain: CARD; Yeast two-hybrid construct; also called CARD domain of ASC
ASC in pGilda
  binding result: binds
ASC-CARD in pGilda
  binding result: binds

B2: endogenous IKKα (protein)
chain: MERPPGLRPGAGGPWEMRERLGTGGFGNVCLYQHRELDLKIAIKSCRLELSTKNRERWCHEIQIMKKLNHANVVKACDVPEELNILIHDVPLLAMEYCSGGDLRKLLNKPENCCGLKESQILSLLSDIGSGIRYLHENKIIHRDLKPENIVLQDVGGKIIHKIIDLGYAKDVDQGSLCTSFVGTLQYLAPELFENKPYTATVDYWSFGTMVFECIAGYRPFLHHLQPFTWHEKIKKKDPKCIFACEEMSGEVRFSSHLPQPNSLCSLVVEPMENWLQLMLNWDPQQRGGPVDLTLKQPRCFVLMDHILNLKIVHILNMTSAKIISFLLPPDESLHSLQSRIERETGINTGSQELLSETGISLDPRKPASQCVLDGVRGCDSYMVYLFDKSKTVYEGPFASRSLSDCVNYIVQDSKIQLPIIQLRKVWAEAVHYVSGLKEDYSRLFQGQRAAMLSLLRYNANLTKMKNTLISASQQLKAKLEFFHKSIQLDLERYSEQMTYGISSEKMLKAWKEMEEKAIHYAEVGVIGYLEDQIMSLHAEIMELQKSPYGRRQGDLMESLEQRAIDLYKQLKHRPSDHSYSDSTEMVKIIVHTVQSQDRVLKELFGHLSKLLGCKQKIIDLLPKVEVALSNIKEADNTVMFMQGKRQKEIWHLLKIACTQSSARSLVGSSLEGAVTPQTSAWLPPTSAEHDHSLSCVVTPQDGETSAQMIEENLNCLGHLSTIIHEANEEQGNSMMNLDWSWLTE
Myc-ASC-PAAD
  TNFα-induced activation of endogenous IKKα (in vitro kinase assay, phosphorylation of GST-IKBα substrate by immunoprecipitated IKKα): ASC-PAAD potently suppressed TNFα-induced activation of endogenous IKKα in these cells
